From patent publication US8859496B2, “Pharmaceutical composition using connective-tissue growth factor” (Postech Academy-Industry Foundation, priority 2010, dated 2014)
No end group written: not given here.

Assays:
[1] = target: T1, FPRL1 (Homo sapiens, UniProt P25090); assay: Flow cytometry binding of biotinylated linker polypeptide to FPRL1/RBL, vector/RBL or FPR/RBL cells
T1 construct: expressed in transfected cells; host or cells: rat basophil leukemia RBL-2H3 cells, kept under G418
T1 sequence (P25090 1-351): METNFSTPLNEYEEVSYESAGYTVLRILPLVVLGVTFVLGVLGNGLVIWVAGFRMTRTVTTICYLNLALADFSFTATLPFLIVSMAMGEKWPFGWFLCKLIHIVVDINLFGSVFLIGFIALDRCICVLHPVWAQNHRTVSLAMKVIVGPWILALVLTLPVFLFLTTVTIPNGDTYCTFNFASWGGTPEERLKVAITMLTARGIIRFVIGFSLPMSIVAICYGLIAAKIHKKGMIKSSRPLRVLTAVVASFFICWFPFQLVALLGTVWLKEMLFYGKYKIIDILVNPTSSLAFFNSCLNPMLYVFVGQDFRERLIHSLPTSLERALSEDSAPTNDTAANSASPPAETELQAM
Procedure: To evaluate the degree of binding of linker polypeptide corresponding to the link region of human CTGF, linker polypeptide was labeled using a EZ-Link Micro Sulfo-NHS-LC-Biotinylation kit (Pierce Chemical Co., Rockford, Ill., USA) according to the manufacturer's instruction. The linker polypeptide was cultured at room temperature for 1 hour in PBS with 9 mM sulfo-NHS-LC-biotin (Pierce Chemical Co., Rockford, Ill., USA). During biotinylation, vector/RBL cells, FPR/RBL cells, FPRL1/RBL cells, or HUVECs were treated with trypsin, and collected, and then, treated with rabbit serum at room temperature for 30 minutes. After culturing the biotinylated linker polypeptide in the ice for 30 minutes, the cells were shortly washed with ice-cold PBS, cultured with antihuman fluoroscein-5-isothiocyanate (FITC)-conjugated streptavidin (Pierce Chemical Co.), and then, washed with ice-cold PBS, and fixed with 1% formaldehyde solution. And then, they were analyzed using FACS Caliber system (BD Biosciences, San Jose, Calif.) with CellQuest and WinMDI 2.9 software according to previously known method (He, R., Sang, H. & Ye, R. D. Serum amyloid A induces IL-8 secretion through a G protein-coupled receptor, FPRL1/LXA4R. Blood 101, 1572-1581, 2003). […]

[2] = target: T1, FPRL1; assay: ERK phosphorylation in FPRL1/RBL cells (immunoblot); format: cell-based; details: FPRL1/RBL cells
Procedure: (§1) Vector/RBL cells, FPR/RBL cells, FPRL1/RBL cells, and HUVECs were cultured to confluence, and serum-starved. The stimulated cells (1×10^5 cells) were washed with PBS twice, dissolved in 1 ml of sample buffer (50 mM Tris-HCl, 100 mM NaCl, 0.1% SDS, 1% Nonidet P-40, 50 mM NaF, 1 mM Na3VO4, 1 μg/ml aprotinin, 1 μg/ml pepstatin, and 1 μg/ml leupeptin), heated at 95° C. for 30 seconds, separated with SDS-PAGE, and then, transferred to a nitrocellulose film. Immunoblot was conducted using anti-phospho-ERK (extracellular signal regulated kinase)1/2 (Thr^202/Tyr^204)(Cell Signaling Technology, Beverly, Mass., USA), anti-ERK1/2 (Cell Signaling Technology, Beverly, Mass., USA), anti-CTGF (Abcam, Cambridge, Mass., USA), anti-Actin (Sigma, St. Louis, Mo., USA), or anti-Flag (Sigma, St. Louis, Mo., USA) antibody, and then, the film was visualized with a chemiluminescence substrate (Amersham Pharmacia).
To confirm this, the inventors obtained conditioned medium (CM) in HUVEC treated with VEGF-A, and FPRL1-overexpressing cells FPRL1/RBL were treated therewith in the concentration of 10 ng/ml or 50 ng/ml for 8 hours. At this time, as positive control, FPRL1 agonistic peptide WKYMVm (Trp-Lys-Tyr-Met-Val-D-Met, SEQ ID NO. 1) was treated with 10 nM.
After the treatment, immunoblot was conducted on cell lysate that was transferred to a nitrocellulose film with anti-phospho ERK (extracellular signal regulated kinase)1/2 and anti-ERK1/2 antibody (Cell Signaling Technology, Beverly, Mass., USA), and then, the film was visualized with a chemiluminescence substrate (Amersham Pharmacia), and the results are shown in FIG. 1.
Meanwhile, the above described vector/RBL, FPR/RBL, or FPRL1/RBL cells were respectively treated with the above conditioned medium or VEGF-A at the concentration of 10 ng/ml for 8 hours, and positive control was treated with 10 nM of agonistic peptide WKYMVm (SEQ ID NO. 1).
As described in the <Experiment method 5>, FPRL1/RBL cells were treated with 40 ug of the HPLC fraction of the conditioned medium for 5 minutes, and the result confirming whether ERK phosphorylation occurred as described in the <Experiment result 1> was shown in FIG. 3.
To confirm whether the purified proteins induce ERK phosphorylation in FPRL1/RBL cells, immunoblot was conducted as described in the <Experiment result 1>, and the results are shown in FIG. 9.
ERK phosphorylation induction of CTGF linker polypeptide was compared to recombinant human CTGF (rhCTGF). Specifically, FPRL1/RBL cells were treated with CTGF linker polypeptide and rhCTGF for 5 minutes at various concentrations, ERK phosphorylation was measured, and the results are shown in FIG. 11. […]

[3] = tested on: HUVECs; assay: ERK phosphorylation in HUVECs (immunoblot); format: cell-based, human
Procedure: as §1
Meanwhile, HUVECs were treated with the CTGF linker polypeptide or rhCTGF at various concentrations for 5 minutes, cell lysate was obtained, and then, immuboblot was conducted with anti-phospho ERK1/2 antibody, and the results are shown in FIG. 14.

[4] = various concentrations, 5 minutes

Row | Substance | binding of biotinylated linker polypeptide to cells ([1]; 10 nM, FPRL1/RBL, vector/RBL or FPR/RBL cells) | ERK phosphorylation compared to rhCTGF ([2]; 10 nM) | ERK phosphorylation compared to rhCTGF [2, 4] | ERK phosphorylation in HUVECs [3, 4] | effect of antagonist on linker polypeptide binding ([1]; WRW4 10 uM, 30 minutes) | effect of antagonist on ERK phosphorylation induced by CTGF linker polypeptide or rhCTGF ([2]; 10 nM CTGF linker polypeptide or rhCTGF, WRW4 10 uM) | effect of antagonist on ERK phosphorylation in HUVECs ([3]; WRW4 10 uM)
1 | EWVCDEPKDQTVVGPALAAYRLEDTFGPDPTMIRANCLV (EWVCDEPKDQTVVGPALAAYRLEDTFGPDPTMIRANCLV-NH2; cysteine pairing not given here) [CTGF linker polypeptide] | binds only to FPRL1/RBL cells | induces ERK phosphorylation to a similar level to rhCTGF | induces ERK phosphorylation to a similar level to rhCTGF | ERK phosphorylation is effectively induced |  |  | 
2 | WRWWWW (FPRL1 antagonist) [WRW4] |  |  |  |  | the linker polypeptide binding is inhibited in FPR/RBL cells | ERK phosphorylation is inhibited | ERK phosphorylation is inhibited
